The values that follow come from patent publication US20260062487A1.

Assay [1] deals with HLA-A*01:01 with … (UBR2) from cells (human). The assay can be described thus: IP-MS, NCI-H1703 lysate, Rep2.
Assay [2] addresses HLA-A*01:01 with … (DSG3) from cells (human). The assay can be described thus: IP-MS, NCI-H1703 lysate, Rep2.
Assay [3] addresses off-target HLA-A*01:01_… (KDM7A) on cells (human). The assay can be described thus: IP-MS, NCI-H1703 lysate, Rep2.
Assay [4] addresses HLA-A*01:01 with … (RBM4) from cells (human). The experiment in a line: IP-MS, NCI-H1703 lysate, Rep2.
For assay [5], the target named is off-target HLA-A*01:01_… (PTS) on cells (human). The assay can be described thus: IP-MS, NCI-H1703 lysate, Rep2.
For assay [6], the target named is HLA-PEPTIDE target A*01:01_… (G2) on cells (human). The assay can be described thus: IP-MS, NCI-H1703 lysate, Rep2.
In assay [7] the target is off-target HLA-A*01:01_… (ICE1) on cells (human). The experiment in a line: IP-MS, NCI-H1703 lysate, Rep2.
In assay [8] the target is HLA-A*01:01 with … (ROBO1) on cells (human). The assay can be described thus: IP-MS, NCI-H1703 lysate, Rep2.
Assay [9] concerns the target HLA-A*01:01 with … (DSG4) from cells (human). The assay can be described thus: IP-MS, NCI-H1703 lysate, Rep2.
The target of assay [10] is HLA-A*01:01 with … (ERGIC3) from cells (human). The experiment in a line: IP-MS, NCI-H1703 lysate, Rep2.
The target in assay [11] is HLA-A*01:01 with … (UBR2) from cells (human). The experiment in a line: IP-MS, NCI-H1703 lysate, Rep1.
Assay [12] addresses HLA-A*01:01 with … (DSG3) from cells (human). The experiment in a line: IP-MS, NCI-H1703 lysate, Rep1.
In assay [13] the target is off-target HLA-A*01:01_… (KDM7A) on cells (human). The assay can be described thus: IP-MS, NCI-H1703 lysate, Rep1.
For assay [14], the target named is HLA-A*01:01 with … (RBM4) from cells (human). The experiment in a line: IP-MS, NCI-H1703 lysate, Rep1.
Assay [15] deals with off-target HLA-A*01:01_… (PTS) on cells (human). The assay can be described thus: IP-MS, NCI-H1703 lysate, Rep1.
In assay [16] the target is HLA-PEPTIDE target A*01:01_… (G2) on cells (human). The experiment in a line: IP-MS, NCI-H1703 lysate, Rep1.
Assay [17] has as its target off-target HLA-A*01:01_… (ICE1) on cells (human). The experiment in a line: IP-MS, NCI-H1703 lysate, Rep1.
Assay [18] deals with HLA-A*01:01 with … (ROBO1) on cells (human). The experiment in a line: IP-MS, NCI-H1703 lysate, Rep1.
In assay [19] the target is HLA-A*01:01 with … (DSG4) from cells (human). The assay can be described thus: IP-MS, NCI-H1703 lysate, Rep1.
The target of assay [20] is HLA-A*01:01 with … (ERGIC3) from cells (human). The experiment in a line: IP-MS, NCI-H1703 lysate, Rep1.
Assay [21] has as its target HLA-A*01:01 with … (UBR2) from cells (human). The assay can be described thus: IP-MS, K562-A*01:01 lysate.
Assay [22] has as its target HLA-A*01:01 with … (RBM4) from cells (human). The experiment in a line: IP-MS, K562-A*01:01 lysate.
For assay [23], the target named is off-target HLA-A*01:01_… (PTS) on cells (human). The experiment in a line: IP-MS, K562-A*01:01 lysate.
Assay [24] has as its target HLA-A*01:01 with … (ERGIC3) from cells (human). The experiment in a line: IP-MS, K562-A*01:01 lysate.
The target in assay [25] is HLA-A*01:01 with … (DSG3) from cells (human). The experiment in a line: IP-MS, NCI-H1703 lysate, Rep2 (peptide also 0 with W6/32).
Assay [26] concerns the target HLA-A*01:01 with … (DSG4) from cells (human). Described as above.
For assay [27], the target named is HLA-A*01:01 with … (DSG3) from cells (human). The experiment in a line: IP-MS, NCI-H1703 lysate, Rep1 (peptide also 0 with W6/32).
The target of assay [28] is HLA-A*01:01 with … (DSG4) from cells (human). The assay is described as above.

Take W6/32 antibody: the copies per cell of the peptide recovered by immunoprecipitation (copies per cell) in [1] stood at 876; in [2], 0; in assay [3] it was 2; in assay [4], 16700; in [5] it was 2980; in assay [6], 4040. Also, the copies per cell of the peptide recovered by immunoprecipitation (copies per cell) in assay [7] stood at 2740; in assay [8] it was 517; in assay [9] it was 0; in [10], 3350; in [11] it was 891; in assay [12] it was 0. The copies per cell of the peptide recovered by immunoprecipitation (copies per cell) in assay [13] is 2; in assay [14] it was 16700; in [15] it was 2930; in assay [16], 3790; in [17] it was 2660; in [18], 554. The copies per cell of the peptide recovered by immunoprecipitation (copies per cell) in assay [19] was determined as 0; in [20] it was 3360; in assay [21] it was 6; in assay [22], 1000; in [23], 91; in [24] it was 96.
In the case of control IgG antibodies (antibody), the copies per cell of the peptide recovered by immunoprecipitation (copies per cell) is 4 in assay [1]; 79 in [4]; 25 in assay [5]; 21 in assay [7]; 15 in assay [10]; 0 in assay [25]. In addition, the copies per cell of the peptide recovered by immunoprecipitation (copies per cell) in [26] came out at 0; in [11] it was 6; in assay [14] it was 113; in assay [15], 32; in assay [17], 35; in assay [20], 25. Also, the copies per cell of the peptide recovered by immunoprecipitation (copies per cell) in assay [27] and in [28] was 0 throughout.
